Measurements from PMC5030662.
Where “and” joins values, the source holds several entries; their conditions need not be identical. Identical values can stand only once.

What was measured:
[1] = target: voltage-gated potassium channel KV1.6 (rat) (UniProt P17659)
[2] = target: KcsA-KV1.3 hybrid channel; test: competitive binding on spheroplasts by confocal fluorescence microscopy
[3] = target: KcsA-KV1.1 hybrid channel; test: as above

Chain of UniProt P17659 (P17659 whole entry): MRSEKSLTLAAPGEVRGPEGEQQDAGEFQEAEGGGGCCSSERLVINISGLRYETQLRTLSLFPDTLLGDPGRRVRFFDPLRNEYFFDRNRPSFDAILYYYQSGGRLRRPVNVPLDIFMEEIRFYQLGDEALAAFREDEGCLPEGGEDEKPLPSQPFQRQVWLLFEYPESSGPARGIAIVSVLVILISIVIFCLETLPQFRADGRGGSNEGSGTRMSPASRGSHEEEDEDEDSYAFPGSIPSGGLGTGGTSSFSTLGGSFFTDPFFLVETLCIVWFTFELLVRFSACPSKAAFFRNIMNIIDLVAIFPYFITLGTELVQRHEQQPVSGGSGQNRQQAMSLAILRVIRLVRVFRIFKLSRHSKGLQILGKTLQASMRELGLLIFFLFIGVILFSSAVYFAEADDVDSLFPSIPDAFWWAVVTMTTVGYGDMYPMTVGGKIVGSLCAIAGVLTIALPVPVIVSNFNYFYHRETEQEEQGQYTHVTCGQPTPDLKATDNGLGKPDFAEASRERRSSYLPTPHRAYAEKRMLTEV

Molecule | IC50 of inhibition of KV1.6 currents, two-electrode voltage clamp in Xenopus oocytes [1] [nM] | Kd [2] | Kd [3]
OSK1 (from UniProt P55896 1-38) (peptide) | 71 |  | 
AgTx2 (from UniProt P46111 1-38) (peptide) | 92 |  | 
GVPINVSCTGSPQCIKPCKDAGMRFGKCMNRKCHCTPK [AgTx2] |  | 0.031 nM and 0.03 nM | 0.049 nM and 0.067 nM
GVIINVKCKISRQCLEPCKKAGMRFGKCMNGKCHCTPK [OSK1] |  | 0.9 nM and 0.7 nM | 1.31 nM and 1.42 nM
